From the nanobody polyreactivity screen of Harvey et al. (2022)

Assay: yeast display, Sf9 membrane polyspecificity reagent, FACS + sequencing; frameworks hold sequencing errors
Summary of the method: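 Galactose induction of a Saccharomyces cerevisiae BJ5465 synthetic nanobody display library ran 36–48 hours. The cells were then stained for 1 hour at 4 °C with 10% biotinylated, detergent-solubilized Sf9 membrane reagent, pulled down on streptavidin microbeads and FACS-sorted into low and high (top ~1%) gates on expression and reagent-binding fluorescence. Labels for polyreactivity follow the gate of origin.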

| Sequence | polyreactivity (PSR sort gate) |
| --- | --- |
| QVQLVESGGGLVQAGGSLRLSCAASGFTFVYYVMGWYRQAPGKERELVAAINAGGGSTYYADSVKGRFTISRDNAKNTVYLQMNSLKPEDTAVYYCYARVRVRLGRNWSSYYYWGQGTQVNVSS | high polyreactivity |
| QVQLVESGGGLVQAGGRLRLSCAASGFTFWRNAMGWYRQAPGKERELVAAISRRGGNTYYADSVKGRFTISRDNAKNCVYLQMNSLKPEDTAVYYCAADYSYYYGYDYWGQGTQVTVSS | high polyreactivity |
| QVQLVESGGGLVHAGGSLRLSCAASGSTFDKYAMGWYRQAPGKERELVAAITWGGGSTYYADSVKGRFTISRDYAKNTVYLQMNSLKPEDTAVYYCNAYRVYAWIEYNYWGQGTQVTVSS | low polyreactivity |
| QVQLVESGGGLVQAGGSLRLSCAASGFTFYSYAMGWYRQAPGKERELVAAISWSGTRTYYADSVKGRFTISRDNAKNTVYLQMNSLKPVDTAVYDCAADTRRWARGYDYWGQGTQVTVSS | high polyreactivity |
| QVQLVESGGGLVQAGGSLRLSCAASGRIFSHYAMGWYRQAPGKEREFVAAITYSGGSTYYADSVKGRFTISRDNAKNTVYLQMNSLKPEDTAVYYCNAKGYAKYYYWGQGTQVTVSS | high polyreactivity |
| QVQLVESGGGLVQAGCSLRISCAASGRIIKSYASGWYRQAPGKERELVAAITWSSGSTYYADSVKGRFTISRDNAKNTVYFQMKRLKPEDTEVYYCAADPIRYRSRHKYGFWGHGTQVTVSS | low polyreactivity |
| QVQLVESGGRLFQAGGSLRLSCAASGFTTSAYTKGWYRQAPGKERELVAVISARGGSTSYADSVKGRFTISRDNAKNPVYLQMKCRKPEDTAVFYCAARGRAHWHYDYWGHGTQVTVSS | high polyreactivity |
| QVQLVESGGGLVQAGGSLRLSCAASGSIFSDNAMGWYRQAPGKERELVAGISSGGGTNYADSVKGRFTISRDNAKNTVYLQMNSLKPEDTGVYDCNADQRDGLELDYWGQGTQVTVSS | low polyreactivity |
| QVQLVDSGGGLVQAVGSLRLSCAASGITFDEYAMGWYRQAPGKERELVAAISVSGGDTYYADSVKGRFTISRDNAKNNVYLQMNSLKPEDTAVYYCNARWGTPYYIQDFDYWGLGTQVTVSS | low polyreactivity |
| QVQLEESGGGLVQAGGSLRLSCAASGLTFAQNAMGWYRQAPGKEREMVAAITSSGGRTYYADSVKGRFTISRDNANNTVYLQMNSLKPEDTAVYDCNVRYYRYGYTYGYWGQGTQVTVSS | high polyreactivity |
| QVQLVESGGGLVQAGGSLRLSCASSGRIFNRYAMGWYRQAPGKERELVAAISSRGGSTYYADSVKGRFTISRDNAKNTVYLPMNSLKPEDTAVYYCAASAQKASYDWRYDYWGQGTQVTVSS | high polyreactivity |
| QVQLVESGGGLVQAGGSLRLSCAASGRTFVCNAMGWYRQAPGKERELVAAISSSGTATYYADSVKGRFTISRDNAKNTVYLQMNSLKPEDTAVYYCAKDLLYQPTIRDYWGQGTQVTVSS | low polyreactivity |
| QVQLVESGGGLVQAGGSLRLSCAASGRIFPDNAMGWYRQAPGKERELVASITSGASTNYADSVKGRFTISRDNAKNTVFLQMNSLKPEDTAVYYCAAGYSYYDDYDYWGQGTQVTVSS | high polyreactivity |
| QVQLVESGGGLVQAGVSLRISCAASGGTLNGYAMGWYRQSPGKERELVAVITSGGSTNYADSVKGLFTISRDNAKNTVYLQMNSLKPEDTAVYYCAVRPYELHRLADQPGGDDYWGQGTQVTVSS | low polyreactivity |
| QVQLVESGGGLVQAGGSLRLSCAASGRIFKIYAMGWYRQAPGKERELVAAISRGGRTYYADSVKGRFTISRDNAKNTVYLQMNSLKPEDTAVYYCAADLLISPEFYYWGQGTQVTVSS | high polyreactivity |
| QVQLVESGGGLVQAGGSLRLTCAASGRIFVYNAMGWYRQAPGKESEFVATITSSGGRTYYADSVKGRFTISRDNAKNTVYLQMNSLKTEDTAVYDCAASPHNYGRNTVYRYKYWGQGTQVTVSS | high polyreactivity |
| QVQLVESGGGLVQAGGRLRLSCAASGRSFYSYTMGWYRQAPGKERELVAAIRKSGGRTYYADSVKGRFTISRDNAKNTVYLQMNSLKPEDTAVYYCATTNYELSYYYWGQGTQVTVSS | high polyreactivity |
| QVQLVESGGGLVQAGGSLRLSCAASGSTLYGNVMGWFRQAPGKERELVATINRGGSTNYADSVKGRFTISRDNAKNTVYLQMNSLKPEDTAVYYCAVYHYSSYEYLGQGTQVTVSS | low polyreactivity |
| QVQLVESGGGLVQAGGSLRLSCAASGRIFSVYTKGWYRQAPGKERELVATISSGGRTNYADSVKGRFTISRDNAKNTVYLQINSLKPEDSAVYYCAAVPYGFVGYDDYWGQGSQVTVSS | low polyreactivity |
| QVQLVESGGGLVQAGGSLRLSCAASGNTFLYYGMGWYRQAPGKERELVAAITQSGGTTYYADSVKGRCTISRDNAKNPVYLQMNSLKPEDTAVYYCAATRYYYYWYVYDDRGDYWGQGTQVTVSS | low polyreactivity |
| QVQLVESGGGLVQAGGSLRLSCAASGFTFVRYAMRWYRQAPGTERELVAAISYSGGRTYYADSVKGRFTISRDTAKNTVYLQMNSLKPEDTAVYYCAADAFRGFYWGQGTQVTVSS | high polyreactivity |
| QVQLVESGGGLVQAGGILRLSCAASGRTFSSNAMGWYRQAPGKERELVAVISSGGSTYYADSVNGRFTISRDNAKNTVYLQLNSLKPEDTAVYYCAAAGGPSGYYYESDYWGQGTQVTVSS | high polyreactivity |

| Sequence | polyreactivity (PSR sort gate) |
| --- | --- |
| QVQLVESGGGLVQAGGSLRLSCAASGSIFSYYAMGWYRQAPGKERELVAAISGSGGSTYYADSVKGRFTISRDNAKNTVYLQMNSLKPDDNAVYSCAARYYAWGRRRTWDDYWGQGTQVTVSS | high polyreactivity |
| QVQLVESGGGLVQAGGSLRLSCAASGFIFSYYAMGWYRQAPGKERELVAAISSGGSTYYADSVKGRFTISRDNAKNSVYLQMNSLKPEDTAVYYCAAAIWYIILYFVRRTEHGYWGQGTQVTVSS | low polyreactivity |
| QVQLVESGGGLVQAGGSLRLSCAASGFIFGWYGMGWDRQARGKERELVAAITWSGVRTYYADSVKGRFTISRDNAKNTVYLQMNSLKPEDTAVYYCARAGGYVGRGYKDQDGRGDYWGQGTQVTVSS | high polyreactivity |
| QVQLVESGGGLVQAGGSLRLSCAASGIIFYYYGMGWSRQAPGKEREFVAAISTSGGNTYYADSVKGRFTISRDNAKNTVYLQMNSLKPEDTAVYYCAADDWPWGDAGVDYWGQGTQVTVSS | low polyreactivity |
| QVQLVESGGGLVQAGGSLRLSCAASGIIFPNYAMGWYRPAPGKERELVAAIDDDASTTYADSVKGRFTISRDNAKNTVYLQMNSLKPEDTAVYYFAADGFDWYDWRWTYDYWGQGTQVTVSS | high polyreactivity |
| QVQLVESGGGLVQAGGSLRLSCAASGSIFYGNVMGWYRQAPGKERELVAAISWRGGSTYYADSVKGRFTMSRDNAKNTVYLPMNSLKPEDTAVYYCNAERYYYATYGYPIDYWGQGTQVTVSS | low polyreactivity |
| QVQLVESVGGLVQAGGSLRLSCAASGSIFYGYAMGWYRQAAGKEREFVAAITFSATSTYYADSVKGRFTISRDNAKNTVYLQMNSLKPEVTAVYYCNASHVSHYRARDYWGQGTQVTVSS | low polyreactivity |
| QVQLVESGGGLVQAGGSLRLSCAASGYTFRANGMGWYRQAPGKERELVAAITQSVDNTYYADSVKGRFTISRDNAKNTVYLQVNSLKPEDTAVYYCATEYGQTGYPQMGYWGQGTQVTVSS | low polyreactivity |
| QVQLVESGGGLVQAGGSLRLSCAASGSILRKYAMGWYRQAPGKERELVAAISGSGGRTHYADSVKGRFTISRDNAKNTVYLQMNSLKPEDTAVYYCARRIKLGQRQGGYYWGQGTQVTVSS | high polyreactivity |
| QVQLVESGGGLVQAGGSLRLRCAASGSTFANYAMGWYRQAPGKERELVAAISVGDGSTYYADSVKGRFTISRDNAKNTVYLQMNILKPEDTAVYYCSRVRGGYDSWGQGTQVTVSS | high polyreactivity |
| QVQLVESGGGLVQAGGSLRLSCAASGSIFVWNAMGWYRPAPGKERELVAAISYTDGSTYYADSVKGRFTISRDNAKNTVYLQMNSLKPVDTAVYYCAAAITPSYTGSEYDYWGQGTQVTVSS | low polyreactivity |
| QVQLVESGGGLVQAGGSLSLICAAYGTTFEYYAMRWYRQAPGKERELVATISIDGRTNYADSVKGRFTISRDNAKNTVYLQMISLKPEDTAVYYCAARPYWRHRYDYWGQGTQVTVSS | low polyreactivity |
| QVQLVESGGGLVQAGGSLCLSCAASGIFVYNAIGWYRQAPGKEREFVAAINKSGASTFYADSVKGRFTISRDNAKNTVYLQMNRLKPEDTAVYYCRERDYWGQGTQVTVSS | low polyreactivity |
| QVQLVESGGGVVQAGGSLRLSCAASGSTFRTNAMGWYRQAPGKERELVAAITSTGGSTYYADSVKGRFTISRDNAKNTVYLQMNSLKPEDTAVYYCAAYYVPGYYYWGQGTQVTVSS | high polyreactivity |
| QVQLVESGGGLVQAGGSLRLSCAASGFNFAIYAMGWYRQAPGKERELVAAINSDGSTYYADSLKGLFTISRDNAKNSDYLQINSLKPEDTAVYYCNAETAGHDMDYWGQGTQVTVSS | low polyreactivity |
| QVQLVESGGGLVQAGGSLRLSCAASGSIFIVNAMGWNRQAPGKERELVAAISWSGGSTYYADSVKGRFTISRDNAKNTVYLQMNSLKPEDTAVYYCAAKYTLPFRDVKYYSWGQGTQVTVSS | high polyreactivity |
| QVQLVESGGGLVQAGGSLRLSCAASGSIVVNNGMGWYRQAPGKERELVATISERGGGTYYADSVKGRFTISRDNAKNTVYLQMNSLKPEDTAVYYCAARVPRFYFVPLYYWGQGTQVTVSS | low polyreactivity |
| QVQLVESGGGLVQAGGSLRLSCAASGIIFYYNAMGWYRQAPGKERELVAAIDDRGDSTYYADSVKGRFTISRDNAKNTVYLEMNSLKPEDTAVYYCATDGHYLYSWYKYDYWGQGTQVTVSS | low polyreactivity |
| QVQLVESGGGLVQAGGSLRLSCAASGSTFVDYAMGWYRQAPGKERELVAAMSSSGGSTYYADSVKGRFTISRDNAKNTVYLQMNSLKPEDTAVYYCAARYDRSSKRNYWGQGTQVTVSS | low polyreactivity |
| QVQLVESGGGLVQAGGSLRLSCAASGRIFQTYTMGWYRQAPGKERELVARITGGDSTYYADSVKGRFTISRDNAKNTVYLQMNSLKPEDTAVYYCAGEVWSYWGTFNYWGQGTQVTVSS | low polyreactivity |
| QVQLVESGGGLVQAGGSLRLSCAASGFIFPKNAMGWYRQAPGKERELVAAISKRGGSTYYADSVKGRFTISRDNAKNTVYLQMNSLKPEDTAVYYCADGYRTRRGLGYYYWGQGTQVTVSS | high polyreactivity |
